The results in this text go back to US20240400701A1 (LANOVA MEDICINES DEVELOPMENT, published 2024).

For one experiment, the target named is T1, mouse AMHR2 (mouse, UniProt Q8K592 16-568).
T1 construct: whole, on cells; also called mouse AMHRII
T1 sequence (looked up): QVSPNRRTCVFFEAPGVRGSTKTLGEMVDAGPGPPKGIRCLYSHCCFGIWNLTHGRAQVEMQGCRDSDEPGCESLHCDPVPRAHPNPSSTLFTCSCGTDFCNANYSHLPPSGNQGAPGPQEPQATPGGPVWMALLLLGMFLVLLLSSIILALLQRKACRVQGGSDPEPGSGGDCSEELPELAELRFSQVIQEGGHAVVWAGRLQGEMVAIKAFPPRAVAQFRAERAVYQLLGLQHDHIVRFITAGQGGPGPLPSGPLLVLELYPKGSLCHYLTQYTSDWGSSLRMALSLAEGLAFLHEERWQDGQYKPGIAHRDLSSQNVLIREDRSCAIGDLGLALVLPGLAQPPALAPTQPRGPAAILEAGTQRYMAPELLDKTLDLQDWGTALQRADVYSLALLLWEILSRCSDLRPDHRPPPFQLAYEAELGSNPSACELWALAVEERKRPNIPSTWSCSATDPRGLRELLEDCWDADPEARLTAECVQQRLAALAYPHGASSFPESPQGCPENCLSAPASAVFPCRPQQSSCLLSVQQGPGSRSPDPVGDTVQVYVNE
Description: FACS on CHO-K1 cells over-expressing mouse AMHR2. As to the method: (§1) To evaluate these antibodies' cross reactivities to cyno, rat and mouse AMHR2, CHO-K1 cells over-expressing cyno, rat and mouse AMHR2, respectively, were harvested from flasks. 100 μl of 1×10⁶ cells/ml of cells were incubated with primary antibodies in 4-fold serial dilutions starting from 300 nM to 0.018 nM for 30 minutes on ice. After being washed with 200 μl of FACS buffer twice, cells were incubated with secondary antibody for 30 minutes on ice. Cells were washed with 200 μl of FACS buffer twice and analyzed by FACS.

Another experiment concerns the target T2, rat AMHR2 (rat, UniProt Q62893 18-557).
T2 construct: whole, on cells; also called rat AMHRII
T2 sequence (looked up): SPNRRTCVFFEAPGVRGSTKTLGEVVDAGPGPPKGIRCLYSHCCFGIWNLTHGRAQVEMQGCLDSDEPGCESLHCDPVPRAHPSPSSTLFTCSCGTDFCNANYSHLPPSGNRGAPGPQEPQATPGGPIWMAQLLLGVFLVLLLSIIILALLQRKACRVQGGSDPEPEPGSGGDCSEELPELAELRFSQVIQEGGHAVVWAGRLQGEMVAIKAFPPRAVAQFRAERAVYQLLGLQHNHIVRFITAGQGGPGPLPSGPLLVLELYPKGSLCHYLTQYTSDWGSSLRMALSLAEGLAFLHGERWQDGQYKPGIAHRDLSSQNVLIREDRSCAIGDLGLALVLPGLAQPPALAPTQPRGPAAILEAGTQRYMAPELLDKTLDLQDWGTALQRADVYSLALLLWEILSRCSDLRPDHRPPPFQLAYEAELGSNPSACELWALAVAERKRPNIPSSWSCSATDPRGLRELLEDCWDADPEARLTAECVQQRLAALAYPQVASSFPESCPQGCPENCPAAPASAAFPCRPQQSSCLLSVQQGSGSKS
Description: FACS on CHO-K1 cells over-expressing rat AMHR2. As to the method:
as §1

The target in experiment [1] is T3, human AMHRII (anti-Mullerian hormone receptor type 2) (human, UniProt Q16671 18-573).
T3 construct: whole, on cells; also called AMHR2; human AMHR2
T3 sequence (looked up): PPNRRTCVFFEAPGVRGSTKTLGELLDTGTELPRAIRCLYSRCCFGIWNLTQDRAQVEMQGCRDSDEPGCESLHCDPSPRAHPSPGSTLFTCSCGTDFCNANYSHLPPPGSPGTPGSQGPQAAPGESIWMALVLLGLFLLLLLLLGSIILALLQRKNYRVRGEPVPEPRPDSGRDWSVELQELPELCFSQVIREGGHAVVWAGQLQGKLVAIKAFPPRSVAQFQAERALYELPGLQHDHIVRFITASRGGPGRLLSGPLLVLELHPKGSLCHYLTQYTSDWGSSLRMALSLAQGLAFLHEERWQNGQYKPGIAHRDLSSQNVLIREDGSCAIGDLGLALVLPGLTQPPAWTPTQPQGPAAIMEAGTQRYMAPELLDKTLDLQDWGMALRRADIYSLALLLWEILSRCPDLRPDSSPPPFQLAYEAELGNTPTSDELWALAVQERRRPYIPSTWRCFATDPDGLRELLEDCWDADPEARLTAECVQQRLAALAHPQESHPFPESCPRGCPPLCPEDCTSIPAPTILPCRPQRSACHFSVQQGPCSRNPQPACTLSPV
Description: FACS on CHO-K1 cells over-expressing human AMHR2. As to the method: CHO-K1 cells over-expressed AMHR2 were harvested from flasks. 100 μl of 1×10⁶ cells/ml of cells were incubated with the humanized antibodies in 3-fold serial dilutions starting from 300 nM to 0.001 nM for 30 minutes on ice. After being washed with 200 μl of FACS buffer twice, cells were incubated with secondary antibody for 30 minutes on ice. Cells were washed with 200 μl of FACS buffer twice and analyzed by FACS.

Experiment [2] deals with T3, human AMHRII (anti-Mullerian hormone …). Description: FACS on Rko cells over-expressing human AMHR2. The protocol: Rko cells over-expressing AMHR2 were harvested from flasks. 100 μl of 1×10⁶ cells/ml of cells were incubated with primary PTM antibodies in 3-fold serial dilutions starting from 300 nM to 0.001 nM for 30 minutes on ice. After being washed with 200 μl of FACS buffer twice, cells were incubated with secondary antibody for 30 minutes on ice. Cells were washed with 200 μl of FACS buffer twice and analyzed by FACS.

B1: 31D9B3 VH1.3-VL2.2 hIgG1 (antibody, V domains shown)
VH: QVQLVQSGAEVKKPGASVKVSCKASGYTFTDYWVSWVRQAPGQGLEWMGEIYPKNQVSNFNEKFKGRVTMTTDTSTSTAYMELRSLRSDDTAVYYCARQRDYWGQGTLVTVSS
VL: DVVMTQSPLSLPVTLGQPASISCRSSQSLEYGDRYTYLEWYLQRPGQSPRLLIYGVSNRFSGVPDRFSGSGSGTDFTLKISRVEAEDVGVYYCFQATHDPNTFGQGTKLEIK
notes: Humanized, PTM de-risked, human IgG1; also called 31D9B3 VH1.3-VL2.2 hlgG1
Regarding B1, the binding result in the experiment with mouse AMHR2 and in the experiment with rat AMHR2 was “no binding (tested: 300 nM highest concentration)” each time. The EC50 was 0.703 nM in experiment [1] and 0.783 nM in experiment [2]. In addition, the “Top (MFI)” value in experiment [1] is 24100 MFI; in experiment [2] it was 16400 MFI.
